The assay addresses EGFR-Flag (UniProt P00533). In words: cell-based or functional assay.

We go through one substance from patent US20090036380A1, “Composition And Method For Brain Tumor Therapy” (Yeda Research and Development Co., Ltd., priority 2006, published 2009).

Chain of HA-Karet (full-length mouse Karet with N-terminal haemagglutinin tag) (Q8K2Y9 whole entry): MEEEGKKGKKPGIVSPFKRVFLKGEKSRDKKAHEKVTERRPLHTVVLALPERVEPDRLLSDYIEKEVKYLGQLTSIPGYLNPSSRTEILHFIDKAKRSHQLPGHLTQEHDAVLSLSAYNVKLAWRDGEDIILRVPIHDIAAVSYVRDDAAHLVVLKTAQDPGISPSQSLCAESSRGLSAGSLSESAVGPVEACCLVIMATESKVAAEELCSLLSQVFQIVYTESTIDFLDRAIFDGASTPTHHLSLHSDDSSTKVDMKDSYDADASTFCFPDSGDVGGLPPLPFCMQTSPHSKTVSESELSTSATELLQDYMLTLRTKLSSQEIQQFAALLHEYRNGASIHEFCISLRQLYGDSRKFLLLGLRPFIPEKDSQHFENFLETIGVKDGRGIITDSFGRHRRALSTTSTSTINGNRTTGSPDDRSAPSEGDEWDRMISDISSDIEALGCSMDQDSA

Take “HA-Karet (full-length mouse Karet with N-terminal haemagglutinin tag) (from UniProt Q8K2Y9 1-453)”: the decrease in cell viability, Hek cells co-transfected with EGFR and Karet (XTT) was 40%.
